From patent US20170198014A1 (UNIVERSITY WASHINGTON THROUGH ITS CENTER FOR …, published 2017)

Biological target: hemagglutinin H1 (A/California/04/2009) (influenza A virus A/California/04/2009 …, UniProt P26140 18-529)
Assay: yeast surface display titration

Row | Binder | binding result
1 | SB24alt1-1 (designed binder) ASGMLAISMDTDKISNSFEDCKYFQLYVLSAGWTNTIFNDESGKEEIVKMSVDAIICKNISEENYKKFSKKIEIYHAEGDDVDKNISLFLEGELSKISNP | no binding
2 | SB24solo2 (designed binder) ASGMLAISMDTDKISNSFEDCKYFLIELKSAGWTNTIFNDESGKEEIVKMGVDAIICKNISEENYKKFSKKIEIYHAEGDDVNKNISLFLEGELSKISNP | no binding
